Here are results for 61 sequences from the supplement of paper PMC7877785.

± gives the uncertainty stated by the source.

The data set can be described thus: self-splicing fitness, log relative to wild type (ln ratio); higher = more splicing; Tetrahymena group I intron in knt gene, E. coli kanamycin selection, DiMSum; sequences stand for … in CUCUCU…GGAGGGAAAAGUUAUCAGGCAUGCACCUGGUAGCUAGUCUUUAAACCAAUAGAUUGCAUCGGUUUAAAAGGCAAGACCGUCAAAUUGCGGGAAAGGGGUCAACAGCCGUUCAGUACCAAGUCUCAGGGGAAACUUUGAGAUGGCCUUGCAAAGGGUAUGGUAAUAAGCUGACGGACAUGGUCCUAACCACGCAGCCAAGUCCUAAGUCAACAGAUCUUCUGUUGAUAUGGAUGCAGUUCACAGACUAAAUGUCGGUCGGGGAAGAUGUAUUCUUCUCAUAAGAUAUAGUCGGACCUCUCCUUAAUGGGAGCUAGCGGAUGAAGUGAUGCAACACUGGAGCCGCUGGGAACUAAUUUGUAUGCGAAAGUAUAUUGAUUAGUUUUGGAGUACUCGUGGUCG
Summed up:
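Colonies from six replicate transformations of E. coli BL21(DE3) were pooled and amplicon-sequenced on an Illumina HiSeq 2500. The library placed an intron with all eight P1ex-region nucleotides randomised inside the knt kanamycin-resistance gene on pET-22b(+), and cells grew overnight at 37°C or 30°C on LB agar with or without 25 μg/mL kanamycin (plus 100 μg/mL carbenicillin, 50 μM IPTG, 0.2% rhamnose). Fitness is the DiMSum error-weighted combination of wild-type-normalised replicate fold changes, kanamycin versus none.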

As to GGAGAGCAAUAUUACGUCGG, the “self-splicing fitness (ln)” value (30 °C) was -4.62 ± 0.39 and the “self-splicing fitness (ln)” value (37 °C) was -3.75 ± 0.3.
For the sequence AGAUAGCAAUAUUACGAGUC, the “self-splicing fitness (ln)” value was -2.64 ± 0.18 (30 °C) and -2.14 ± 0.21 (37 °C).
With AGAGAGCAAUAUUACGCUUA, the “self-splicing fitness (ln)” value was -2.39 ± 0.25 (30 °C) and -1.32 ± 0.23 (37 °C).
As for UGAUAGCAAUAUUACGAUCC, the “self-splicing fitness (ln)” value is, setting by setting: (30 °C) -0.554 ± 0.12; (37 °C) 0.433 ± 0.15.
For CCCGAGCAAUAUUACGUUAA, in that order: -2.82 ± 0.2 and -2.25 ± 0.16.
Taken in the same sequence, the figures for CCUAAGCAAUAUUACGGCUC were -3.13 ± 0.23 and -1.56 ± 0.21.
For GGGAAGCAAUAUUACGAGAA, in that order: -2.16 ± 0.48 and -1.78 ± 0.36.
On to AAAUAGCAAUAUUACGGAUC, for which the “self-splicing fitness (ln)” value by setting is: (30 °C) -1.18 ± 0.11; (37 °C) -0.569 ± 0.15.
In the case of UUUCAGCAAUAUUACGUUAC, the “self-splicing fitness (ln)” value (30 °C) is -4.82 ± 0.28 and the “self-splicing fitness (ln)” value (37 °C) is -2.66 ± 0.16.
For the sequence GUUAAGCAAUAUUACGUUCA, the “self-splicing fitness (ln)” value was -0.268 ± 0.09 (30 °C) and -0.472 ± 0.11 (37 °C).
For UUCAAGCAAUAUUACGAGCU, in that order: -2.99 ± 0.23 and -1.33 ± 0.18.
For CCCUAGCAAUAUUACGGCCC, in that order: -3.9 ± 0.27 and -0.5 ± 0.38.
As to ACGCAGCAAUAUUACGAAUA, where the note is “37 °C”, the “self-splicing fitness (ln)” value is -2.19 ± 0.23.
For UCCAAGCAAUAUUACGAACA, the “self-splicing fitness (ln)” value was -1.87 ± 0.14 (30 °C) and -0.969 ± 0.13 (37 °C).
For CCUAAGCAAUAUUACGAAGC, in that order: -2.92 ± 0.18 and -1.92 ± 0.28.
For AUUCAGCAAUAUUACGCAUU, in that order: -0.534 ± 0.076 and -0.427 ± 0.095.
Taken in the same sequence, the figures for UAGUAGCAAUAUUACGCUCC were -2.38 ± 0.45 and -0.239 ± 0.45.
As to UGAUAGCAAUAUUACGCAUG, the “self-splicing fitness (ln)” value by setting is: (30 °C) -1.23 ± 0.078; (37 °C) -0.48 ± 0.1.
Take GUGUAGCAAUAUUACGCACA: the “self-splicing fitness (ln)” value (37 °C) was -1.5 ± 0.2.
With UUUCAGCAAUAUUACGUUGG, the “self-splicing fitness (ln)” value was -4.07 ± 0.18 (30 °C) and -2.52 ± 0.2 (37 °C).
In the case of AUACAGCAAUAUUACGCCGU, the “self-splicing fitness (ln)” value reads like this: (30 °C) -1.34 ± 0.099; (37 °C) -0.0561 ± 0.1.
Taken in the same sequence, the figures for CGAGAGCAAUAUUACGGCAG were -2 ± 0.18 and -1.33 ± 0.22.
Taken in the same sequence, the figures for AAUGAGCAAUAUUACGCGAA were -3.05 ± 0.18 and -2.7 ± 0.22.
As for AUUGAGCAAUAUUACGCUGG, the “self-splicing fitness (ln)” value runs as follows: (30 °C) -2.76 ± 0.34; (37 °C) -1.24 ± 0.25.
In the case of GGUUAGCAAUAUUACGUUAC, the “self-splicing fitness (ln)” value is -2.81 ± 0.19 (30 °C) and -1.47 ± 0.23 (37 °C).
For GGGCAGCAAUAUUACGAUAU, in that order: -0.768 ± 0.099 and -0.877 ± 0.1.
For UUGAAGCAAUAUUACGUUUC, in that order: -3.35 ± 0.2 and -3.3 ± 0.32.
Consider UGAGAGCAAUAUUACGGCAG, for which, where the note is “37 °C”, the “self-splicing fitness (ln)” value was -1.58 ± 0.31.
Regarding CUACAGCAAUAUUACGGGUC, the “self-splicing fitness (ln)” value is, setting by setting: (30 °C) -4.01 ± 0.23; (37 °C) -2.44 ± 0.21.
For CUUAAGCAAUAUUACGGUUC, in that order: -4.11 ± 0.19 and -3.1 ± 0.26.
For GAGCAGCAAUAUUACGUAGU, in that order: -3.35 ± 0.19 and -1.01 ± 0.15.
In the case of AUCGAGCAAUAUUACGUGGU, the “self-splicing fitness (ln)” value reads like this: (30 °C) -3.23 ± 0.15; (37 °C) -2.72 ± 0.14.
For GUAAAGCAAUAUUACGGCUG, in that order: 0.0741 ± 0.066 and 0.175 ± 0.088.
For ACUGAGCAAUAUUACGUCUG, in that order: -3.59 ± 0.28 and -2.43 ± 0.2.
Taken in the same sequence, the figures for UGUUAGCAAUAUUACGCGAC were -3.75 ± 0.4 and -1.59 ± 0.5.
Consider UUGGAGCAAUAUUACGAUGC, for which, for the setting “30 °C”, the “self-splicing fitness (ln)” value was -1.76 ± 0.28.
For GCUGAGCAAUAUUACGCUCU, the “self-splicing fitness (ln)” value runs as follows: (30 °C) -1.12 ± 0.17; (37 °C) -0.769 ± 0.2.
For UAACAGCAAUAUUACGGUAG, in that order: -1.7 ± 0.07 and -0.0293 ± 0.076.
Taken in the same sequence, the figures for UUCUAGCAAUAUUACGUGGA were -1.73 ± 0.31 and -1.15 ± 0.18.
CAUGAGCAAUAUUACGUUUC: the “self-splicing fitness (ln)” value (30 °C) is -2.86 ± 0.34.
CUAAAGCAAUAUUACGAACG: the “self-splicing fitness (ln)” value is, setting by setting: (30 °C) 0.195 ± 0.089; (37 °C) 0.868 ± 0.12.
For CUCCAGCAAUAUUACGAGGU, in that order: -4.41 ± 0.31 and -3.07 ± 0.24.
Taken in the same sequence, the figures for AGAUAGCAAUAUUACGAGUA were -1.76 ± 0.3 and -1.33 ± 0.2.
Taken in the same sequence, the figures for CGGUAGCAAUAUUACGCCAG were -0.874 ± 0.092 and -1.03 ± 0.14.
On to CGAUAGCAAUAUUACGCGAC, for which the “self-splicing fitness (ln)” value reads like this: (30 °C) -2.59 ± 0.32; (37 °C) -1.35 ± 0.28.
Take GGUAAGCAAUAUUACGUGCG: the “self-splicing fitness (ln)” value is, setting by setting: (30 °C) -1.12 ± 0.12; (37 °C) -0.227 ± 0.12.
As for CUUGAGCAAUAUUACGAGUC, the “self-splicing fitness (ln)” value is -4.15 ± 0.39 (30 °C) and -1.33 ± 0.17 (37 °C).
For the sequence CCAAAGCAAUAUUACGGACG, the “self-splicing fitness (ln)” value runs as follows: (30 °C) -0.4 ± 0.064; (37 °C) 0.287 ± 0.091.
For UACUAGCAAUAUUACGUUAU, in that order: -3.58 ± 0.18 and -1.45 ± 0.14.
Regarding ACCGAGCAAUAUUACGAACA, the “self-splicing fitness (ln)” value by setting is: (30 °C) -3.15 ± 0.47; (37 °C) -1.43 ± 0.17.
Taken in the same sequence, the figures for GUGUAGCAAUAUUACGAUUA were -1.58 ± 0.27 and 0.0491 ± 0.2.
Taken in the same sequence, the figures for GCUCAGCAAUAUUACGAGUU were -1.85 ± 0.079 and -0.858 ± 0.09.
Taken in the same sequence, the figures for AAUCAGCAAUAUUACGGCAA were -0.417 ± 0.074 and 0.747 ± 0.091.
Regarding CGGAAGCAAUAUUACGCGAG, the “self-splicing fitness (ln)” value is -1.19 ± 0.15 (30 °C) and -1.24 ± 0.27 (37 °C).
On to CUUCAGCAAUAUUACGGAAG, for which the “self-splicing fitness (ln)” value by setting is: (30 °C) -4.18 ± 0.28; (37 °C) -2.4 ± 0.2.
Regarding CGCCAGCAAUAUUACGUUAG, the “self-splicing fitness (ln)” value was -0.475 ± 0.074 (30 °C) and 0.385 ± 0.099 (37 °C).
For CUACAGCAAUAUUACGUCGG, in that order: -1.98 ± 0.066 and -0.736 ± 0.079.
On to GGAUAGCAAUAUUACGUCCA, for which the “self-splicing fitness (ln)” value runs as follows: (30 °C) -1.4 ± 0.17; (37 °C) -0.317 ± 0.19.
For CCCUAGCAAUAUUACGCCUG, in that order: -3.64 ± 0.23 and -3.11 ± 0.23.
Taken in the same sequence, the figures for UCGAAGCAAUAUUACGACUU were -1.14 ± 0.21 and -2.8 ± 0.23.
For ACCGAGCAAUAUUACGGCGC, in that order: -1.24 ± 0.14 and -0.396 ± 0.16.
